Tested on: cardiomyocytes (CM)
Test: Mouse MI model: TUNEL staining of CM apoptosis
Type: in vivo
Settings: vs Luc modRNA
Experimental: All surgical and experimental procedures with mice were performed in accordance with protocols approved by Institutional Animal Care and Use Committees at Temple University Animal Care and Use Committee (IACUC). C57BL6 or CM-specific MADM mice (8-12-weeks-old) were anesthetized with isoflurane. MI was induced by permanent ligation of the LAD, as previously described (Garikipati, V. N. S., et al., 2019, Nature Communications, 10:4317). Briefly, the left thoracic region was shaved and sterilized. After intubation, the heart was exposed through a left thoracotomy. A suture was placed to ligate the LAD. The thoracotomy and skin were sutured closed in layers. Excess air was removed from the thoracic cavity, and the mouse was removed from ventilation when normal breathing was established. In order to determine the effect of modRNA on cardiovascular outcome after MI, modRNAs (100 μg/heart) were injected into the infarct zone immediately after LAD ligation (Magadum A., et al., Circulation. 2020, 141 (15): 1249-1265). For examination of heart histology, hearts were collected at the end of each study, quickly washed in PBS, weighed, and fixed in 4% PFA for cryo-sectioning and immunostainings. In all experiments, the surgeon was blinded to the treatment group. For assessment of heart histology, hearts were collected at the end of each study. The hearts were excised, briefly washed in PBS, perfused with perfusion buffer, weighed and fixed in 4% PFA at 4° C. overnight. The heart blocks were transverse sectioned at 6-8 μm using cryostat. The heart sections were further processed for histological evaluation using immunostaining (see below) or histological scar staining using Masson's trichrome staining kit (Sigma) according to standard procedures. Measuring the ratio of heart weight to body weight was done using a scale. This ratio was calculated as the heart tissue weight relative to the mouse total body weight in grams (g).
Mice hearts were harvested, weighed, and fixed in 4% PFA/PBS overnight on shaker and then washed with PBS for 1 hour and incubated in 30% sucrose/PBS at 4° C. for 12-18 hours. Hearts were then fixed in OCT and frozen at −80° C. (Magadum A., et al., Circulation. 2020, 141 (15): 1249-1265). Transverse heart sections (6-8 μm) were made using a cryostat. […] For immunostaining with wheat germ agglutinin (WGA) for CM size quantification, images were captured at 40× magnification, and ImageJ was used to determine the area of each cell. Quantitative analyses involved counting of multiple fields from 5-8 mouse hearts per group, and 3-4 sections/heart (˜50 cells per field assessed, for a total ˜250 cells per sample). […] BrdU positive CMs were counted in multiple fields from three independent samples per group and 3 sections/heart. […]

B1: PSAT1 modRNA: modified mRNA with N1-methylpseudouridine, transcribed in vitro, encoding phosphoserine aminotransferase 1 (ORF SEQ ID NO: 1, RNA SEQ ID NO: 2) (nucleic acid)
chain: AUGGAAGCCACCAAGCAAGUGGUUAACUUUGGGCCCGGGCCUGCCAAGCUGCCACACUCGGUAUUGUUGGAGAUCCAGAAGCAGCUACUAGACUACAGAGGACUCGGCAUCAGUGUGCUCGAAAUGAGUCACAGGUCAUCAGAUUUUGCCAAGAUUAUUGGCAAUACAGAGAAUCUUGUGAGGGAAUUGCUAGCUGUUCCCAACAACUACAAGGUGAUCUUUGUACAAGGAGGUGGGUCUGGCCAGUUCAGUGCUGUCCCCUUAAAUCUGAUUGGCCUGAAAGCUGGAAGGAGUGCUGACUACGUGGUGACCGGAGCUUGGUCAGCUAAGGCUGCGGAAGAAGCCAAGAAGUUUGGAACGGUGAACAUUGUCCACCCUAAACUUGGAAGUUACACAAAAAUUCCAGACCCAAGCACCUGGAACCUCAACCCGGACGCCUCCUAUGUAUACUUCUGUGCAAACGAGACUGUGCACGGGGUGGAGUUUGACUUCGUACCUGACGUCAAGGGAGCGGUGCUGGUCUGUGACAUGUCCUCAAACUUCUUAUCCAGGCCGGUGGAUGUUUCCAAGUUUGGUGUGAUUUUCGCUGGUGCUCAGAAGAAUGUUGGCUCUGCCGGGGUGACGGUGGUGAUUGUCCGGGAUGACCUGCUGGGGUUCUCGCUCAGAGAGUGCCCAUCAGUCCUUGACUACAAAGUGCAGGCUGGGAACAACUCUUUGUAUAACACACCUCCGUGCUUCAGCAUCUACGUCAUGGGCAUGGUCCUGGAAUGGAUCAAGAACAACGGCGGGGCCGCAGCCAUGGAGAAGCUCAGCUCCAUCAAAUCCCAAAUGAUUUAUGAGAUCAUUGAUAAUUCUCAAGGAUUUUAUGUAUGCCCAGUGGAGCGCCAGAAUAGAAGCAGGAUGAACAUCCCAUUUCGCAUUGGCAACGCCAAAGGAGACGAAGCUUUGGAAAAGCGGUUUCUUGACAAGGCGGUAGAACUCAACAUGAUCUCCUUGAAGGGGCACAGGUCAGUGGGAGGCAUUCGUGCCUCUCUGUAUAACGCUGUCACAACCGAAGACGUUGAGAAGCUGGCGGCCUUCAUGAAGAAUUUCUUGGAGAUGCAUCAGCUGUGA
modifications: N1-methylpseudouridine
B1 was tested, and the “TUNEL+ CMs” value (2 days post-MI) was “significantly decreased” and the “TUNEL+ CMs” value (7 days post-MI) was “significantly decreased”.

— patent publication US20250215403A1, “Compositions and Methods for Cardiac Tissue Regeneration” (Temple University - Of The Commonwealth System Of Higher …, priority 2022, published 2025)
